Data on four molecules can be found in US20110002929A1 (Ablynx, published 2011).

In assay [1] the target is T1, human RANK-L, full length, membrane-bound, expressed on HEK293T cells (human, UniProt O14788 1-317).
T1 construct: whole, on cells; also called hRANK-L
T1 sequence (looked up): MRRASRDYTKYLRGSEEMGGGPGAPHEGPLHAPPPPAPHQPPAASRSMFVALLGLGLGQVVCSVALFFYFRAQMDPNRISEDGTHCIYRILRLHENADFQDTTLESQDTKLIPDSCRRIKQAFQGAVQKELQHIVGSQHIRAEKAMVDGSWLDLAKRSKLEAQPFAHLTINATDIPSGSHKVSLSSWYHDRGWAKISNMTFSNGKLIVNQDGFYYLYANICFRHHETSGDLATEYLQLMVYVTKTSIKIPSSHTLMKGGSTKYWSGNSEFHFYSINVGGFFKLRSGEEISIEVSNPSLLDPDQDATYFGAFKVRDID
The assay can be described thus: FACS, HEK293T with human RANK-L, 2000 pM Nanobody. The protocol: (§1) Human embryonic kidney cells (HEK293T) were grown in Dulbecco's modified Eagles's medium supplemented with 10% fetal bovine serum (FBS), […] L-glutamine, 0.4 mM sodium pyruvate. […] After 48 hours, transfected cells were subjected to FACS analysis. […] Then cells were washed three times with FACS buffer. Bound Nanobodies were detected by subsequent incubations of a primary mouse anti Myc antibody (30 min at 4° C. (2 μg/ml)) and a second incubation with goat anti mouse-Phycoerythrin (PE) (Jackson Laboratories) for another 30 min at 4° C. Finally, after washing, the cells were resuspended in PBS+10% FBS+TO-PRO®-3 (5 nM) (Molecular Probes®, Invitrogen, Merelbeke, Belgium) and cell surface fluorescence expressed as mean PE fluorescence, was measured using flow cytometry.
On the technique in general: Flow cytometry measures light scatter and fluorescence of single cells or particles in a stream.

Assay [2] concerns the target T1, human RANK-L, full length, …. The assay can be described thus: FACS, HEK293T with human RANK-L, 16 pM Nanobody. The protocol: as §1
The next assay concerns the target T2, TNFα (UniProt P01375 77-233).
T2 construct: also called TNF-alpha
The assay can be described thus: competition ELISA on RANK-L-coated plates, 1 nM Nanobody preincubated with the ligand.

Another assay concerns the target T3, CD40 ligand (UniProt P29965 113-261, limits assumed).
T3 sequence (looked up): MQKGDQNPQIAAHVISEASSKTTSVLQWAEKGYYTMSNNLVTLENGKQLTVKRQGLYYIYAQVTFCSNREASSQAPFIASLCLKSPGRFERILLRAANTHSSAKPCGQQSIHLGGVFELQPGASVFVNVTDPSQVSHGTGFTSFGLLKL
Described as above.

A further assay concerns the target T4, TRAIL (UniProt P50591 114-281, limits assumed).
T4 construct: also called tumor necrosis factor-related apoptosis inducing ligand
The assay is described as above.

Assay [3] deals with T5, human RANK-L (human, UniProt O14788 140-317, limits assumed).
T5 construct: Soluble protein, used coated, biotinylated or labelled in ELISA, AlphaScreen, FMAT and Biacore; also called hRANK-L; soluble human RANK-L
T5 sequence (looked up): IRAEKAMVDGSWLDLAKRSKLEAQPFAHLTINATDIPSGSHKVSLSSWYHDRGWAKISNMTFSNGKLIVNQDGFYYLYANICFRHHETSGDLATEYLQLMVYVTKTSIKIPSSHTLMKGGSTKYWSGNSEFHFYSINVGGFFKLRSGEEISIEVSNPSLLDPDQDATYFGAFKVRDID
In words: ELISA (ED50), biotin-hRANK-L on neutravidin. The protocol: (§2) Therefore 2 μg/ml neutravidin was coated overnight at 4° C. The plates were washed 5 times with 300 μl PBS and then blocked with […] 1% casein/PBS for 2 hours at room temperature. […] After extensive washing with PBS, varying concentrations of Nanobodies starting from 500 nM to 160 pM diluted in 1% casein/PBS were added to the wells and the plates were incubated for 1 hour at room temperature. Bound Nanobodies were detected by subsequent incubations of a primary mouse anti-myc antibody and a secondary anti mouse-HRP conjugate (DAKO, Glostrup, Denmark) and using TMB-H2O2 (Pierce, Rockford, Ill., USA) substrate cocktail. The reaction was stopped with H₂SO₄ and the OD was read at 450 nm.

The target in assay [4] is T5, human RANK-L. In words: AlphaScreen, biotin-hRANK-L / RANK-huFc beads.
The target of assay [5] is T1, human RANK-L, full length, …. In words: FACS, HEK293T with human RANK-L, 400 pM Nanobody. The protocol:
as §1

The target of assay [6] is T5, human RANK-L. The assay can be described thus: AlphaScreen, biotin-hRANK-L / RANK-huFc beads. This is another data set of the same source. In general terms: In Alpha technology, singlet oxygen from a donor bead excites a nearby acceptor bead.
Assay [7] deals with T1, human RANK-L, full length, …. In words: FACS, HEK293T with human RANK-L, 80 pM Nanobody. The protocol:
as §1

The target of another assay is T6, mouse RANK-L (mouse, UniProt O35235 158-316, limits assumed).
T6 construct: also called murine RANK-L
T6 sequence (looked up): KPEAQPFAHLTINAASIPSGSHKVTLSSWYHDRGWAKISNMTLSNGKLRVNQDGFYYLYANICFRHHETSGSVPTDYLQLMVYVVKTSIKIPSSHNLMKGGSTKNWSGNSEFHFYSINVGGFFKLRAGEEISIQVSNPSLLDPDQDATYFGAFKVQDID
In words: ELISA, set-up as for human RANK-L. As for the experimental part:
as §2

For assay [8], the target named is T1, human RANK-L, full length, …. In words: FACS, HEK293T with human RANK-L, 3.2 pM Nanobody. As for the experimental part:
as §1

In assay [9] the target is T5, human RANK-L. In words: AlphaScreen, biotin-hRANK-L / RANK-huFc beads. As for the experimental part: To this mixture, the RANK acceptor beads and the streptavidin donor beads were added and further incubated for 1 hour at room temperature. Fluorescence was measured by reading plates on the EnVision Multilabel Plate Reader (Perkin Elmer) using an excitation wavelength of 680 nm and an emission wavelength of 520 nm.
This is another data set of the same source.

Assay [10] deals with T5, human RANK-L. In words: FMAT, ALEXA647-hRANK-L / RANK on HEK293T cells.
In assay [11] the target is T5, human RANK-L. The assay can be described thus: SPR Biacore 3000, hRANK-L on CM5, 100 nM Nanobody. As for the experimental part:
(§3) Binding kinetics of the humanized versions of Nanobodu RANL13 were also analysed by Surface Plasmon Resonance (Biacore 3000). […] Nanobody binding was assessed at one concentration (100 nM). Each Nanobody was injected for 4 minutes at a flow rate of 45 μl/min to allow binding to chip-bound antigen. Next, binding buffer without Nanobody was sent over the chip at the same flow rate to allow spontaneous dissociation of bound Nanobody.
A general note: SPR reads the build-up and loss of mass on a sensor chip optically.

The target of assay [12] is T5, human RANK-L. The assay can be described thus: FMAT, ALEXA647-hRANK-L / RANK on HEK293T cells. This is another data set of the same source.
The target in assay [13] is T5, human RANK-L. The assay can be described thus: AlphaScreen, biotin-hRANK-L / RANK-huFc beads. This is another data set of the same source.
Assay [14] deals with T5, human RANK-L. The assay can be described thus: AlphaScreen, biotin-hRANK-L / RANK-huFc beads. The source holds these as a separate data set.
Assay [15] has as its target T5, human RANK-L. The assay can be described thus: SPR Biacore 3000, hRANK-L on CM5, 100 nM Nanobody; only indicative (one concentration). The protocol:
as §3

T2 sequence (P01375 77-233 limits assumed): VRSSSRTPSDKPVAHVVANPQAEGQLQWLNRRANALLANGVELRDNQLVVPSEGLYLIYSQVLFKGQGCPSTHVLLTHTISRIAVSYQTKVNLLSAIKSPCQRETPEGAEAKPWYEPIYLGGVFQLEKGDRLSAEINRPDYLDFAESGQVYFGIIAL
T4 sequence (P50591 114-281 limits assumed): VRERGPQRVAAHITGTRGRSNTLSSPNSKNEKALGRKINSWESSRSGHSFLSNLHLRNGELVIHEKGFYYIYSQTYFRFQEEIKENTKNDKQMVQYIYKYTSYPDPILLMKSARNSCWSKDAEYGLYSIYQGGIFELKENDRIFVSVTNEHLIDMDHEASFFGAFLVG

B1: RANKL9 (VHH)
VHH: EVQLVESGGGLVQAGGSLRLTCAASGRTFRSYAMGWFRQAPGKEREFVAAINYSGGSTNYADSVKGRFTISRDNAKNTLYLQMNSLEPEDTAVYYCAAGSGYASLSYYSTERAYTYWGQGTQVTVSS
notes: not shown: c-myc and His6 tags
On to B1, for which the PE mean fluorescence in assay [1] turned out to be 4860; in [2] it was 1350; in assay [5], 3360; in assay [7], 2280; in assay [8], 381. The binding result with TNFα is recorded as “no binding (tested: approximately 100 nM)”; with CD40 ligand, “no binding (tested: approximately 100 nM)”; with TRAIL, “no binding (tested: approximately 100 nM)”; with mouse RANK-L, “no binding (tested: 500 nM to 160 pM)”. This molecule also displayed an EC50 with human RANK-L [3] of 0.542 nM. Moreover, the half-inhibitory concentration (IC50) in the assay with human RANK-L [4] amounted to 0.238 nM; with human RANK-L [6], 0.341 nM; with human RANK-L [9] it was 0.137 nM; in the assay with human RANK-L [10] it was 0.13 nM.

B2: RANKL6 (VHH)
VHH: EVQLVESGGGLMQTGGSLRLSCAASGVTYSYYTASWFRQAPGKEREFVAAISPSGNTYYADSVKGRFTISRDNGKHTMYLQMNSLNPEDTAVYFCAIRATDSIYYASSYRHWGQGTQVTVSS
notes: as for B1
In the case of B2, the PE mean fluorescence was found to be 12800 in assay [1]; 434 in [2]; 4580 in assay [5]; 1700 in assay [7]; 347 in assay [8]. The binding result with TNFα is “no binding (tested: approximately 100 nM)”; with CD40 ligand, “no binding (tested: approximately 100 nM)”; in the assay with TRAIL, “no binding (tested: approximately 100 nM)”; in the assay with mouse RANK-L, “no binding (tested: 500 nM to 160 pM)”. The same molecule showed a concentration giving a half-maximal response (EC50) with human RANK-L [3] of 0.385 nM. In addition, the values for the IC50 with human RANK-L [6] and with human RANK-L [9] were 0.777 nM and 0.288 nM, respectively.

B3: RANKL13hum5 (VHH)
VHH: EVQLVESGGGLVQPGGSLRLSCAASGFTFSSYPMGWFRQAPGKGREFVSSITGSGGSTYYADSVKGRFTISRDNAKNTLYLQMNSLRPEDTAVYYCAAYIRPDTYLSRDYRKYDYWGQGTLVTVSS
B3 showed a koff in the assay with human RANK-L [11] of 0.00021 s⁻¹. Besides, the results for the IC50 with human RANK-L [12], with human RANK-L [13] and in the assay with human RANK-L [14] were 0.137 nM, 0.091 nM and 0.188 nM, respectively. This molecule returned a Kd with human RANK-L [15] of 0.26 nM. Besides, the association rate constant (kon) in the assay with human RANK-L [15] worked out at 800000 M⁻¹ s⁻¹.

B4: RANKL18hum6 (VHH)
VHH: EVQLVESGGGLVQPGGSLRLSCAASGRTFSRSAMGWFRQAPGKGREFVGFITGSGGTTYYADSVKGRFTISRDNAQNPVYLQMNSLRPEDTAVYYCAVYRRTYISSTYSESSEYDYWGQGTLVTVSS
Turning to B4, in the assay with human RANK-L [11], the koff was determined as 6.72e-05 s⁻¹. Further, the IC50 came out at 0.38 nM in the assay with human RANK-L [12], 0.138 nM with human RANK-L [13] and 0.087 nM in the assay with human RANK-L [14]. In the assay with human RANK-L [15], this molecule yielded a Kd of 0.16 nM. This molecule showed an association rate constant (kon) in the assay with human RANK-L [15] of 500000 M⁻¹ s⁻¹.

Broadly, the EC50 is the concentration giving half of the maximal effect. Lower therefore signals an effect from little substance. Broadly, the IC50 is the concentration at which inhibition is half-maximal. A low value points to higher potency. The term koff denotes the first-order rate constant of dissociation. The term Kd denotes a measure of binding affinity in units of concentration. By kon is commonly meant the second-order rate constant of association. A higher kon goes with faster complex formation.
